Target: GHRH receptor (GHRH-R) of rat insulinoma INS-1 cells (rat) (UniProt Q02644)
Assay: cell-based or functional assay

UniProt Q02644, sequence (Q02644 23-464): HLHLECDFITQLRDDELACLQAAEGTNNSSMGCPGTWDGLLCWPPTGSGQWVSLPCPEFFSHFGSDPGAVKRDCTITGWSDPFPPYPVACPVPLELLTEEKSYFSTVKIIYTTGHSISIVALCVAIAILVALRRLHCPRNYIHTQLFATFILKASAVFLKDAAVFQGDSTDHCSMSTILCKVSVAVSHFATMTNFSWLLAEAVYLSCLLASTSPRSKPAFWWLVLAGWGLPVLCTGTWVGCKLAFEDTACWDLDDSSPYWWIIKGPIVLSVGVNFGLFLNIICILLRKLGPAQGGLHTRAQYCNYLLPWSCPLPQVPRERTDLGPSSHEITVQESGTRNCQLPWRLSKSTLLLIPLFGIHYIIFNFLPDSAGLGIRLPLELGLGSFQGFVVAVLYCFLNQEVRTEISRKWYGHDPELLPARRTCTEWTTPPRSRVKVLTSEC

apoptosis of INS-1 cells as indicated by activity of caspases 3 and 7: 20 % reduction
cell proliferation of INS-1 cells: 50 % increase
Substance: GHRH agonist JI-36, (Dat1, Thr8, Orn12,21, Abu15, Nle27, Asp28, Agm29)hGH-RH(1-29) (peptide)
